Among the data in publication doi:10.1101/2020.04.27.064493 are Kd values, retold here.

For the assay, the target named is human DNMT1 fragment (residues 351-1600) (human) (UniProt P26358). The experiment in a line: ITC. Background: Isothermal titration calorimetry measures the heat released or taken up as one component is titrated into another.

For the substance “H3_(1-24)K9me3Ub2: H3 (1-24) K9me3 K18C/K23C peptide carrying two ubiquitin(G76C) through dichloroacetone linkage (from UniProt P68431;P0CG48) (complex)”, the dissociation constant Kd (usually the free concentration of one partner at which half of the binding sites on the other are occupied at equilibrium, for simple one-to-one binding) came out at 17 nM.

Consider “H3_(1-24)Ub2: H3 (1-24) K18C/K23C peptide carrying two ubiquitin(G76C) through dichloroacetone linkage (from UniProt P68431;P0CG48) (complex)”, for which the equilibrium dissociation constant (Kd) was 91 nM.
